Experimental data published in patent publication US20210139548A1 (published 2021).
*1 amine or outer side, *2 acyl side, *3 side chain or, on linkers, in order; H or OH if unused. Side-chain parts run from the residue outwards. The star is where a group is joined. C18 diacid = O=C(O)CCCCCCCCCCCCCCCCC(=O)*; γGlu = O=C(O)[C@H](CCC(=O)[*:2])N[*:1]; Isovaleryl = CC(C)CC(=O)*; AEEA = NCCOCCOCC(=O)O

T1: human neuropeptide Y2 receptor (human, UniProt P49146 1-381)
T1 construct: whole, on cells; also called hNPY2 receptor; hNPY2-R
T1 sequence (looked up): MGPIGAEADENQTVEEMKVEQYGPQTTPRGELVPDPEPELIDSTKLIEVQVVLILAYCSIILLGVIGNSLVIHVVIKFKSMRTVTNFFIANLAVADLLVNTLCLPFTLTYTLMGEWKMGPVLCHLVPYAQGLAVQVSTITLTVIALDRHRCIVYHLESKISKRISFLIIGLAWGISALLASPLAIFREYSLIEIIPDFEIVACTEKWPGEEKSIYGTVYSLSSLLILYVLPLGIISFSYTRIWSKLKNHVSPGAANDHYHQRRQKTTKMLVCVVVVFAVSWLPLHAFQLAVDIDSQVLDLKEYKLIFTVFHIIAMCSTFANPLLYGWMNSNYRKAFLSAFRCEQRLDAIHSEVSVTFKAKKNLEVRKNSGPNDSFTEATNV

T2: human NPY1 receptor (human, UniProt P25929 1-384)
T2 sequence (looked up): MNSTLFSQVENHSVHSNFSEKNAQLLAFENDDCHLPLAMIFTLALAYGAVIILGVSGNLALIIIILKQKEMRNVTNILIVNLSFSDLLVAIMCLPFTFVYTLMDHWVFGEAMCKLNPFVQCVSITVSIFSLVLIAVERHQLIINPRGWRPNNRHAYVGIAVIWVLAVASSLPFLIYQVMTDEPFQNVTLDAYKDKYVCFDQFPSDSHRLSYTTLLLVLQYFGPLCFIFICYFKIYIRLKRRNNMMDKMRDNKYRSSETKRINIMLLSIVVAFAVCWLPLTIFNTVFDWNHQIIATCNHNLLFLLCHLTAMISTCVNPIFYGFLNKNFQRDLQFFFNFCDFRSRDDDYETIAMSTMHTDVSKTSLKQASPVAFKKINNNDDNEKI

T3: human NPY5 receptor (human, UniProt Q15761 1-445)
T3 sequence (looked up): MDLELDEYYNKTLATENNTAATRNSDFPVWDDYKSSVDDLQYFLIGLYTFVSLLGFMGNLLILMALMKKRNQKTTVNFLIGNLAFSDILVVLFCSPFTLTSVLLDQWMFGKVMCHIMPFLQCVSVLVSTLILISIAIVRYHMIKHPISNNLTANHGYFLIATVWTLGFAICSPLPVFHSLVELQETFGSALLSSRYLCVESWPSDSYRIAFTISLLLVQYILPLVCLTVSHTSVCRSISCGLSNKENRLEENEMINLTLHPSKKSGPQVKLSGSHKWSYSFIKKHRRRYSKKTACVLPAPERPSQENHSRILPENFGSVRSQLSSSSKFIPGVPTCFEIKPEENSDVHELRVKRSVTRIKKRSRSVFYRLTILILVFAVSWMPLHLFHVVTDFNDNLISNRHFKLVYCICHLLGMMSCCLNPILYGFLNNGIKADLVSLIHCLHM


Key:
[1] = target: T1, human neuropeptide Y2 receptor; experiment: radioligand competition (125I-PYY(1-36)), hNPY2R membranes
In short: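 Commercial human Y2 receptor membranes (0.5 μg protein/well) were incubated with peptide for 2 h at room temperature in 50 mM HEPES, 5 mM MgCl₂, 1 mM CaCl₂, pH 7.4, with 0.2% ovalbumin. Bound radioligand was separated on PEI-soaked GF/C filters and counted by scintillation, and IC₅₀ came from nonlinear sigmoidal regression.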

[2] = target: T2, human NPY1 receptor; experiment: cell-based or functional assay
[3] = target: human NPY4 receptor (human, UniProt P50391 1-375); experiment: cell-based or functional assay
Chain of human NPY4 receptor (P50391 whole entry): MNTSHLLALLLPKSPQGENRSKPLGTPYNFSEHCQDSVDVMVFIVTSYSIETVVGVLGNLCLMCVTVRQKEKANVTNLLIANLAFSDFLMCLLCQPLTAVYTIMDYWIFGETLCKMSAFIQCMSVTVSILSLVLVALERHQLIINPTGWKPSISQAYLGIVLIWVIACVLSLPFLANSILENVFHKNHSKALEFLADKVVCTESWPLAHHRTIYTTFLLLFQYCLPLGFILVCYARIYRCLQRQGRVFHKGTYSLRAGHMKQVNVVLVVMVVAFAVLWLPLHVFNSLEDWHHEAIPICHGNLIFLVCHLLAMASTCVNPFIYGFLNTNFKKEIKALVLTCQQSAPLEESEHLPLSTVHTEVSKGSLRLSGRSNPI

[4] = target: T3, human NPY5 receptor; experiment: cell-based or functional assay
[5] = target: T1, human neuropeptide Y2 receptor; experiment: cell-based or functional assay

Binder	Ki [1]	EC50 (HTRF cAMP Gi assay) [2]	EC50 (HTRF cAMP Gi assay) [3]	EC50 (HTRF cAMP Gi assay) [4]	EC50 (HTRF cAMP Gi assay) [5]
Isovaleryl-APEK([AEEA-AEEA-γGlu-C18 diacid])PEEEASPEELQRYYVSLRHYYNWLTRQRY-NH2 (SMILES CC(C)CC(=O)N[C@@H](C)C(=O)N1CCC[C@H]1C(=O)N[C@@H](CCC(=O)O)C(=O)N[C@@H](CCCCNC(=O)COCCOCCNC(=O)COCCOCCNC(=O)CC[C@H](NC(=O)CCCCCCCCCCCCCCCCC(=O)O)C(=O)O)C(=O)N1CCC[C@H]1C(=O)N[C@@H](CCC(=O)O)C(=O)N[C@@H](CCC(=O)O)C(=O)N[C@@H](CCC(=O)O)C(=O)N[C@@H](C)C(=O)N[C@@H](CO)C(=O)N1CCC[C@H]1C(=O)N[C@@H](CCC(=O)O)C(=O)N[C@@H](CCC(=O)O)C(=O)N[C@@H](CC(C)C)C(=O)N[C@@H](CCC(N)=O)C(=O)N[C@@H](CCCNC(=N)N)C(=O)N[C@@H](Cc1ccc(O)cc1)C(=O)N[C@@H](Cc1ccc(O)cc1)C(=O)N[C@H](C(=O)N[C@@H](CO)C(=O)N[C@@H](CC(C)C)C(=O)N[C@@H](CCCNC(=N)N)C(=O)N[C@@H](Cc1c[nH]cn1)C(=O)N[C@@H](Cc1ccc(O)cc1)C(=O)N[C@@H](Cc1ccc(O)cc1)C(=O)N[C@@H](CC(N)=O)C(=O)N[C@@H](Cc1c[nH]c2ccccc12)C(=O)N[C@@H](CC(C)C)C(=O)N[C@H](C(=O)N[C@@H](CCCNC(=N)N)C(=O)N[C@@H](CCC(N)=O)C(=O)N[C@@H](CCCNC(=N)N)C(=O)N[C@@H](Cc1ccc(O)cc1)C(N)=O)[C@@H](C)O)C(C)C) [Compound 46]	3.3 nM	> 5000 nM	> 5000 nM	> 5000 nM	0.152 nM
Isovaleryl-APEK([AEEA-AEEA-γGlu-C18 diacid])PEEDAEPEELQRYYVSLRHYYNWLTRQRY-NH2 (SMILES CC(C)CC(=O)N[C@@H](C)C(=O)N1CCC[C@H]1C(=O)N[C@@H](CCC(=O)O)C(=O)N[C@@H](CCCCNC(=O)COCCOCCNC(=O)COCCOCCNC(=O)CC[C@H](NC(=O)CCCCCCCCCCCCCCCCC(=O)O)C(=O)O)C(=O)N1CCC[C@H]1C(=O)N[C@@H](CCC(=O)O)C(=O)N[C@@H](CCC(=O)O)C(=O)N[C@@H](CC(=O)O)C(=O)N[C@@H](C)C(=O)N[C@@H](CCC(=O)O)C(=O)N1CCC[C@H]1C(=O)N[C@@H](CCC(=O)O)C(=O)N[C@@H](CCC(=O)O)C(=O)N[C@@H](CC(C)C)C(=O)N[C@@H](CCC(N)=O)C(=O)N[C@@H](CCCNC(=N)N)C(=O)N[C@@H](Cc1ccc(O)cc1)C(=O)N[C@@H](Cc1ccc(O)cc1)C(=O)N[C@H](C(=O)N[C@@H](CO)C(=O)N[C@@H](CC(C)C)C(=O)N[C@@H](CCCNC(=N)N)C(=O)N[C@@H](Cc1c[nH]cn1)C(=O)N[C@@H](Cc1ccc(O)cc1)C(=O)N[C@@H](Cc1ccc(O)cc1)C(=O)N[C@@H](CC(N)=O)C(=O)N[C@@H](Cc1c[nH]c2ccccc12)C(=O)N[C@@H](CC(C)C)C(=O)N[C@H](C(=O)N[C@@H](CCCNC(=N)N)C(=O)N[C@@H](CCC(N)=O)C(=O)N[C@@H](CCCNC(=N)N)C(=O)N[C@@H](Cc1ccc(O)cc1)C(N)=O)[C@@H](C)O)C(C)C) [Compound 188]	3.09 nM	> 5000 nM	> 5000 nM	> 5000 nM	0.106 nM
Isovaleryl-APEK([AEEA-AEEA-γGlu-C18 diacid])PEEDATPEELQKYYVSLRHYYNWLTRQRY-NH2 [Compound 231]	1.96 nM	> 5000 nM	> 5000 nM	> 5000 nM	0.107 nM
Isovaleryl-APEK([AEEA-AEEA-γGlu-C18 diacid])PEEDAEPEELQEYYVSLRHYYNWLTRQRY-NH2 (SMILES CC(C)CC(=O)N[C@@H](C)C(=O)N1CCC[C@H]1C(=O)N[C@@H](CCC(=O)O)C(=O)N[C@@H](CCCCNC(=O)COCCOCCNC(=O)COCCOCCNC(=O)CC[C@H](NC(=O)CCCCCCCCCCCCCCCCC(=O)O)C(=O)O)C(=O)N1CCC[C@H]1C(=O)N[C@@H](CCC(=O)O)C(=O)N[C@@H](CCC(=O)O)C(=O)N[C@@H](CC(=O)O)C(=O)N[C@@H](C)C(=O)N[C@@H](CCC(=O)O)C(=O)N1CCC[C@H]1C(=O)N[C@@H](CCC(=O)O)C(=O)N[C@@H](CCC(=O)O)C(=O)N[C@@H](CC(C)C)C(=O)N[C@@H](CCC(N)=O)C(=O)N[C@@H](CCC(=O)O)C(=O)N[C@@H](Cc1ccc(O)cc1)C(=O)N[C@@H](Cc1ccc(O)cc1)C(=O)N[C@H](C(=O)N[C@@H](CO)C(=O)N[C@@H](CC(C)C)C(=O)N[C@@H](CCCNC(=N)N)C(=O)N[C@@H](Cc1c[nH]cn1)C(=O)N[C@@H](Cc1ccc(O)cc1)C(=O)N[C@@H](Cc1ccc(O)cc1)C(=O)N[C@@H](CC(N)=O)C(=O)N[C@@H](Cc1c[nH]c2ccccc12)C(=O)N[C@@H](CC(C)C)C(=O)N[C@H](C(=O)N[C@@H](CCCNC(=N)N)C(=O)N[C@@H](CCC(N)=O)C(=O)N[C@@H](CCCNC(=N)N)C(=O)N[C@@H](Cc1ccc(O)cc1)C(N)=O)[C@@H](C)O)C(C)C) [Compound 105]	6.94 nM	> 5000 nM	> 5000 nM	> 5000 nM	0.284 nM
Isovaleryl-APEK([AEEA-AEEA-γGlu-C18 diacid])PEEDASEEELQEYYVSLRHYYNWLTRQRY-NH2 (SMILES CC(C)CC(=O)N[C@@H](C)C(=O)N1CCC[C@H]1C(=O)N[C@@H](CCC(=O)O)C(=O)N[C@@H](CCCCNC(=O)COCCOCCNC(=O)COCCOCCNC(=O)CC[C@H](NC(=O)CCCCCCCCCCCCCCCCC(=O)O)C(=O)O)C(=O)N1CCC[C@H]1C(=O)N[C@@H](CCC(=O)O)C(=O)N[C@@H](CCC(=O)O)C(=O)N[C@@H](CC(=O)O)C(=O)N[C@@H](C)C(=O)N[C@@H](CO)C(=O)N[C@@H](CCC(=O)O)C(=O)N[C@@H](CCC(=O)O)C(=O)N[C@@H](CCC(=O)O)C(=O)N[C@@H](CC(C)C)C(=O)N[C@@H](CCC(N)=O)C(=O)N[C@@H](CCC(=O)O)C(=O)N[C@@H](Cc1ccc(O)cc1)C(=O)N[C@@H](Cc1ccc(O)cc1)C(=O)N[C@H](C(=O)N[C@@H](CO)C(=O)N[C@@H](CC(C)C)C(=O)N[C@@H](CCCNC(=N)N)C(=O)N[C@@H](Cc1c[nH]cn1)C(=O)N[C@@H](Cc1ccc(O)cc1)C(=O)N[C@@H](Cc1ccc(O)cc1)C(=O)N[C@@H](CC(N)=O)C(=O)N[C@@H](Cc1c[nH]c2ccccc12)C(=O)N[C@@H](CC(C)C)C(=O)N[C@H](C(=O)N[C@@H](CCCNC(=N)N)C(=O)N[C@@H](CCC(N)=O)C(=O)N[C@@H](CCCNC(=N)N)C(=O)N[C@@H](Cc1ccc(O)cc1)C(N)=O)[C@@H](C)O)C(C)C) [Compound 164]	4.33 nM	> 5000 nM	> 5000 nM	> 5000 nM	0.235 nM
